Results reported in the DeepSol protein solubility set.

assay: soluble on expression in E. coli; label from the status in PepcDB or PDB records

Soluble on expression in E. coli, not soluble:
MGSDKIHHHHHHMTPNIYQQLGLKKVINACGKMTILGVSSVAPEVMQATARAASAFVEIDALVEKTGELVSRYTGAEDSYITSCASAGIAIAVAAAITHGDRARVALMPDSSGMANEVVMLRGHNVDYGAPVTSAIRLGGGRIVEVGSSNLATRWQLESAINEKTAALLYVKSHHCVQKGMLSIDDFVQVAQANHLPLIVDAAAEEDLRGWVASGADMVIYSGAKAFNAPTSGFITGRKTWIAACKAQHQGIARAMKIGKENMVGLVYALENYHQGQTTVTAAQLQPVAEAISAIHGLYADIEQDEAGRAIWRIRVRVNASELGLNAQDVEAQLRGGEIAIYARKYQLHQGVFSLDPRTVAEGEMALIVARLREIAEHAAD
MGSDKIHHHHHHMTPTLPDRKQNPPSAPAATVSLRLLEIFMLVAQEGSVSAAANRLNLTQAAVSQAITVLEQALDVKLLDRSVRPPLLTLRGSTALQYAREILAKVHEFEDAMRYSGSGRVPLLRIGMLNSFASTAGAFVLNQLRDIAAEWTVASGFRETCIQALLDRQSDVIITTDETPAPSEIEVFPIFSEPFVAVVPASFDGKTERLQDIADKLDFIHYGHDSHMGSKITNYLKKIGTVPARRYQFDTTDAALHMVAGGFGWAIVTPLIYLKSRVEGSGVRVVPLTRLPIHRTFIVGMRRGEGSDIAQRVRTAAIITLRDVILPQIEAVLPEASKGVSVAEIEPKASTGKRKGSRRDSAGS
MGSDKIHHHHHHMTQKTLPPLNWLRAFEVSARYLNFTHAAEELHLTQGAVSQQIRHLESQLGVALFKRLPRGLGLTEEGQSYLPVVQDAISRLAVGTNEIFGQRQRRPLKVRGSLSFLHFWLAPRLADFRRSHPQVDIRYISNLWVKELDAEDDLEIRWGSGQWAGVEAQRLTRDMLVPVCAPALLAGCPLREPRDLARVPLLHVLGYEEGWGYWLERVGADQVDSSSGLQFDTLVSTLRMAELGLGVALARSSLVEDLLQEGRLVAPFAQRIEASESFFLVRGLGEALSPDAQAFSHWLVAMAHR
MGSDKIHHHHHHMTQMEMARKGVVSDEMKKVAEYEGVDVEIVRQKLAEGRAVLPKNKLHRIERPMIVGEGFSVKVNANIGTSQGFSSLEEEKEKARVAIEYGADSLMVLSTWGDLREIRRAIVEMSPVPVGSVPIYDSAVRSYQMKKNVVDFSEKDFFDMVIAHAEDGIDFMTIHVGVTRRVLDRIKSSRRVLKIVSRGGAIIAGWMIKNNKENPFYEHFDELLDIAKDYDITLSLGDGMRPGAVVDASDAQQFEELFVMGELVERAREKGVQVMLEGPGHVPLNEVEMNVRLMKKIGKGAPIFLLGPLPTDRAMGYDHIACAIGGALAGYYGADFLCYVTPSEHISLPDVEDVREGVIASKIAAIVADVARGNKKAWELEKKMALARKNFDWETMFSLSLGKDVAKKKYEERPYPDKGCSMCGPFCAIKIAEEFS
MGSDKIHHHHHHMTQTDSLPGVQATVQDMGERARRAARVLRSLPTGRKVQALRALAAELRAREAGILAANAQDVQAAEAAGLPAPLVDRLRLSAGALAAIARDVEAVAALPDPVGEQTDEKTLPSGIRVSQRRVPLGVLGVIYESRPNVTVDVAALALMSGNAAILRGGKETVNSNAALEDAIHAALNREGLPADAVQVIRDPDRARMLELLRLDESVDAIIPRGGAGLHRFCVENATVPVIVGGIGVVHIYLDGSFVQTPQDVQIAAALIRNAKTQKPSACNALDTLLIDRAALAALPDVVRPLLESGVEVRADAEAQAALAGAGLNVTSAQLGDYGTEFLALVASLRTVSGLDEALDFIAERGGHTDVILTRDPAQAERFVQDVDSAAVMVNVSPRFNDGGQLGLGAEVAISTQKLHARGPMGLRELTTSKWVVRGEGQVRD
MGSDKIHHHHHHMTRRGMEFYEKAQELVKGFDIFQNQYANPEEEKDEFSIASQHYDFLPPTITAFSERYPDYKNFRIFESTTVQILDEVAQGHSEIGIIYLNNQNKKGIMQRVEKLGLEIIELISFHTHIYLREGHPLAQKEELVMEDLADLPTVRFTQEKDEYLYYSENFVDTSASSQMFNVTDRATLNGILERTDAYATGSGFLDSDSVNGITVIRLKDNLDNRMVYVKREEVELSQAGTLFVEVMQEYFNQKRKS
MGSDKIHHHHHHMTSNGQQGKPNLPEKDNLPRELGTQRINSPIARMGMFGAKTTGDTSGYGRLRVYRHVPAAAQRPYSDPSDPRTAYFDEVADALERSLKEIGTPYDTAISRVVVDRGEITFHVQREHLLDVATRLRDDPALRFELCLGVTGVHYPEDEGNELHAVYALRSITHNYEIRLEVSCPDSDPHIPSIVSVYPTNDWHEREAWDFFGIIFDGHPALTRIHMPDDWHGHPQRKDYPLGGIPVEYRGAKVPPPDQRRSYA
MGSDKIHHHHHHMTSPHSFSVTPIRTMADGTIKQIHPFTGTEVWTVPGRGNRPLSHPASTIVELSAHDHTSYCAFCSDNMLSTPPEKSRIIIDSSGDFDILPGALPGELSETTPEFRRVPNLFEIVSFDYWHQNFGFDMDSETAMRMAQYLAIPEGREHVLAIVRTRLSAAGEDPAHMTDGELLEKAPSYFAGGHDVIIGRRHFVDDATTSDQLASSGTLTVKEHEAFIRLTVDGIRDLYHRNRYAPYVVAFQNWLKPAGASFDHLHKQLVAIDERGRLIADELHHLRGNPNMYNELAVDYAGYHNLIIAENDHAVAFAGFGHRYPTIEIYSKSAIPEPWLQSDEEIQAMSNLIHACHAATGADVPCNEEWVHKPIDVDMPMPWHVMIKWRVSTLAGFEGGTKVYLNTLSPHKVRDRVVKEMYRLRDEELIASDLRIAMECSVERNSLKYNPLL
MGSDKIHHHHHHMTTDNAKAQLTSSSGGNIIVVSNRLPVTITKNSSTGQYEYAMSSGGLVTALEGLKKTYTFKWFGWPGLEIPDDEKDQVRKDLLEKFNAVPIFLSDEIADLHYNGFSNSILWPLFHYHPGEINFDENAWLAYNEANQTFTNEIAKTMNHNDLIWVHDYHLMLVPEMLRVKIHEKQLQNVKVGWFLHTPFPSSEIYRILPVRQEILKGVLSCDLVGFHTYDYARHFLSSVQRVLNVNTLPNGVEYQGRFVNVGAFPIGIDVDKFTDGLKKESVQKRIQQLKETFKGCKIIVGVDRLDYIKGVPQKLHAMEVFLNEHPEWRGKVVLVQVAVPSRGDVEEYQYLRSVVNELVGRINGQFGTVEFVPIHFMHKSIPFEELISLYAVSDVCLVSSTRDGMNLVSYEYIACQEEKKGSLILSEFTGAAQSLNGAIIVNPWNTDDLSDAINEALTLPDVKKEVNWEKLYKYISKYTSAFWGENFVHELYSTSSSSTSSSATKN
MGSDKIHHHHHHMTTDYRLTSDADREAFYQLYQYAFNNHDTPARRRFFMDRYQHGWIYGRHDHGQLVSGLYSLPLAVNFHGVTYRMNGIGDVMSAPEYAGQGGAGQLLTTALTEMAANHVTLSYLAPFAYGYYRRFGYEHVFNHAHQVMAAPDLPRVKPTDWSGTITRYGNDGLAQINDFYARQPQNQCGGLIRPAWWQHYLTLKHHWSVAIYRNAAANIEGYLIYERQATNFAIQEWVTSTPTAFERLANFITKHGTTFETFSYDSPSATNGLDLLADPYRLKVTVQPYMMARIVDLYDFIKRYPFLTDIQPIRLAVSDATLPANQGIWSLTRHNGQVTLNRVSDQLTGPADIQLTIQQLTTACFGTQSLARAYQHGLITGDVNAINRLDTSLVKERPALIDYF
MGSDKIHHHHHHMTTEFKGQTIPPMHTGGQGAVTGQRFLDRLRQNPPTLYIDGQRVADPTTHPSTRNMCQSLAGLYDLQFQEDLKETLTYEDGGKRYARSFMVPRTKDDLRLIAESHRIRANYGLGFLGRAPDYMNANVMAAGAGAEYFNGCSAAVPGDPKRDFAANMRRYYEYVQGNDLCLTHALTNPQVNRSKMASELPDPYIALGIVEETDEGVIVRGARMMATLPIADEILIFPSTVLKENADKSRYAMGFGIPTNTPGLSFQCREPIDVGRDPEDHPLSSRFDEQDAFVIFDDVLVPWERIFLLYDVELANKAYAGTDAVLHMAYQVVNLKIAKTEAFLGTAQSIVNAIGSGGFQHVQAKIAEIIIMLEIMKALEVAAREQAEPNDYGVMTPARAPLDAARNYYPANHARLPELLQLLGASGIIMMPSKADREGPLGPQIAKYLQTGNANADERLRLFRLAWDMSMSSFAGRQELYERYFFGDPVRMHSALYEVYDSSEAVARIGEFLQRK
MGSDKIHHHHHHMTVSMEQLEAFVAAAEHGSFSAAGRALRKAQSAVSTQVSNLEEDLGLELFSRQGRNPTLTAAGERLLSEARLILDRREHLIGVAASFEAHVEKRLVVAIDELYPEHALGELFAEFAVHFPHVELELLFPMMEDVSRLVLDGKADIGVMWRQEDLPAELGFHTIGWVQLKLVCGRNHPLANAVVGWEDLKRHRQIMVTVRTEGMERHRLRVAAEVWWVESHWVILQILKQGIGWALIPAHILARSPVAQDLAIPALQFDDGAHPVALELVWHKQRPSGPAATWLRKRFATTKIDMVAE
MGSDKIHHHHHHMTVTDLSKKPLLLLDHVTMQFGGLVAVDDFTNEIREGELVGLIGPNGAGKTTVFNVITGIYTPTKGRIVFNDIDITGLRPYQITHLGIARTFQNIRLFSDMTVLENVLVAQHHVLSNPDADRILVKHGKPRKGHGRFWFWRAVTKIGYLKKEKEMVERAKDLIKRVGLEKVMYEKASSLPYGEQRKLEIARALATEPKLILLDEPAAGMNPKETEDLMEFIKQIRKDFNLTVLLIEHDMKVVMGICERIIVMDYGRIIAEGTPKEIQNDPRVIEAYLGREWESV
MGSDKIHHHHHHMTWDQSPLRGGEPIVSVQSPFEAIERGPKMEMRDIDFLIIGATKSATTWLQQSLQQDPGIFMPDPELHYFSRYYERGDEWYLEHFAGQEHRRLRGEKSNSYMDVPEAAERIKEKLPEARLIAHVRNPVDRAYSDYCMLYRRAEVGRDIAQYLDPRQGAGGRFLNGGLYYQQLQGYLDRFPAEQILVLLYEDLKIDARAQLARVRGFLGLEADVPLKPLAKKVKDKSEPVVNPTLRRLLRPLKPVAAPFRQNTGFKKLRSLIAGELQYAPLSHDLRARMTDYFAPETEKLGALVGRDLTDWLRNRSPEK
MGSDKIHHHHHHMTWNTPKPGEWKSEELSKGRIIDYKAFNFVDGEGVRNSLYVAGCMFHCEGCYNVATWSFDAGIPYTQELEEQIMEDLAQPYVQGLTLLGGEPFLNTGILLPLLKRIRKELPEKDIWSWTGYTWEELMLETPDKLEMLNLLDILVDGRFDKSKKNLMLQFRGSSNQRIIDVPKSLASGQVVIWDKLNDGKQTYEQIDRDGLI
MGSDKIHHHHHHMVCNLAIDAYYGCMADFSHILMTRPDFGDDDREWLHQLVADWQVIADLSFADLLLILQNGEGKYIIAEQCRPSTVMSLRAEDVVGNVVPESLCAELDAAMDSESVFRSSKLRTVGKAKVCNVYAPVRHNGKTLGLVVRETNMATRESNGRYESESISAGKQLYEMIPRGQFPYRNPVMNQRHNARVADGFIVLTVDGIVRYASPNAISCFRRLGSVSTMQGEYLSEIGTKLLHENDPVLETLPLVLSGKAAVDSELDANKAAVSMRSLPLMDANGRVGGIVLCRDVSELRRREKELQTKDATISEIHHRVKNNLQAVSALLRLQARKTKSEEVKKELKEAQRRVQTIAMVHEGLSQTADEIVDYDKVISNLLKMAVDLATMRDQHIDVDFVGKFGMMPAQDATPLSLVLTELITNSVEHGFEGRKEGHITISVGRGGNNLNVVVEDDGTGLADEEHDGMARSSGSGLGTQIINTFVTNDFGGTVHWEPRRGGGTRVVLDMKLCAAQDN
